± gives the standard deviation of the averaged measurements.
Test system: Saccharomyces cerevisiae
Experiment: protein stability index of tFT-peptide fusion (C-terminal peptide) (PSI (0-1 scale)); higher = more stable (slower turnover)
Details: genetic background: wild type; temperature: 30 C
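Further: PSI is a weighted mean of sequencing reads over stability bins, variants kept only with over 10 reads, mCherry proximal and sfGFP distal, peptide attached via GGGS linker.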

In order of falling protein stability index:
1. LTWVVNSGKGRC  0.918 ± 0.087
2. LRRPSPPTPSPP  0.86 ± 0.2
3. LTGHVGNMWDAA  0.86 ± 0.025
4. LSEDGGHRWHRI  0.796 ± 0.087
5. LRPSPGYRLGIH  0.791 ± 0.1
6. LRDIEEIHRRGA  0.782 ± 0.013
7. LRNNKIKLIQKK  0.7809 ± 0.0034
8. LSFPAPLPLFNT  0.767 ± 0.037
9. LTLLFLHPFPST  0.753 ± 0.1
10. LRDWCMLGELAR  0.742 ± 0.014
11. LRIRSTSSPPRP  0.74 ± 0.015
12. LTFFRSSPPRPY  0.739 ± 0.031
13. LVGGRGSRSVEA  0.739 ± 0.12
14. LSPLPHGLPFST  0.736 ± 0.015
15. LTILEPYFLLGP  0.732 ± 0.21
16. LVDHLEMSTTSL  0.724 ± 0.017
17. LSSPPSRPFAPS  0.721 ± 0.089
18. LSLPHPSPLSFS  0.718 ± 0.038
19. LVGLCSVFPSLV  0.716 ± 0.008
20. LSASAWCSSLTR  0.714 ± 0.047
21. LSSSWDLTHFDC  0.714 ± 0.033
22. LSLPSPRPPPSP  0.713 ± 0.063
23. LTRPHPPPVRTP  0.711 ± 0.083
24. LRGRYNDVRHGK  0.708 ± 0.053
25. LTKTAHVGQLWL  0.708 ± 0.025
26. LSELCFAPRSPE  0.706 ± 0.046
27. LREENKKSETKR  0.705 ± 0.027
28. LSFTSVLGQIPV  0.705 ± 0.039
29. LRCPLPFFSAFF  0.704 ± 0.11
30. LRLPPPPPLPHV  0.704 ± 0.033
31. LSPGCLFLLPFL  0.701 ± 0.066
32. LSSPSPSCSLPP  0.701 ± 0.077
33. LSSPTHTPHPPS  0.701 ± 0.0097
34. LTILRSPLPSLS  0.701 ± 0.019
35. LRNWIGGTLGGG  0.7 ± 0.0095
36. LSPLLSLPRCPT  0.7 ± 0.04
37. LSPPRSAPPPPR  0.699 ± 0.014
38. LRDLLVFCDLFR  0.695 ± 0.0082
39. LRPVPLCPAALL  0.695 ± 0.037
40. LSSPPHVRSSPF  0.695 ± 0.029
41. LRDQEYAMRPPC  0.693 ± 0.08
42. LRPASPVGRQTQ  0.691 ± 0.04
43. LSVEAGRGELLW  0.69 ± 0.067
44. LRSMSPPPHSLA  0.688 ± 0.058
45. LSVQVLSLRPRA  0.688 ± 0.036
46. LRCCGGCGVCAL  0.686 ± 0.03
47. LRPLKVSGGGRG  0.685 ± 0.045
48. LRRVKSGPYFRF  0.684 ± 0.074
49. LRHSCSTYRIFS  0.683 ± 0.028
50. LSPTRPATRSPP  0.6826 ± 0.0014
51. LSTPASVLLSSG  0.682 ± 0.011
52. LRAVCDLTGSRV  0.68 ± 0.072
53. LSPPLPRAPHLS  0.678 ± 0.077
54. LRSLLYDKVISL  0.676 ± 0.055
55. LSGVSGALVFVG  0.676 ± 0.047
56. LVFLGLCGTDFV  0.676 ± 0.12
57. LVCYHLSLPSVR  0.675 ± 0.052
58. LRPFLFSALPLT  0.672 ± 0.01
59. LTSDGGLSGCSL  0.67 ± 0.029
60. LSRMTNFKEKEG  0.669 ± 0.03
61. LRTLALSYTSLT  0.664 ± 0.035
62. LRGRRPFSQRAT  0.662 ± 0.034
63. LRMWFGLMRPDA  0.66 ± 0.034
64. LSDIDLLGLPIL  0.66 ± 0.085
65. LSFLSDFCLWVL  0.659 ± 0.053
66. LSPPQRISLIPY  0.659 ± 0.03
67. LRGDGGLFGDSG  0.655 ± 0.035
68. LRTHPPGPLPLA  0.654 ± 0.12
69. LSDFFLDREGRV  0.654 ± 0.034
70. LSTPPDLNPLIF  0.654 ± 0.034
71. LTYVQPTKGTLG  0.654 ± 0.05
72. LTNISKIKILRY  0.653 ± 0.032
73. LSFSSLYFPSLC  0.651 ± 0.081
74. LSNFLFYGLCPG  0.651 ± 0.081
75. LSPSDSPSPPAS  0.6499 ± 0.0016
76. LRIGVEAGRAHR  0.648 ± 0.033
77. LSLSVNLPLFPT  0.648 ± 0.067
78. LSCALCLLGFRC  0.647 ± 0.029
79. LSNLQPPISVPL  0.6473 ± 0.006
80. LSVLHATFGRCD  0.645 ± 0.017
81. LVFRSGWVSLIG  0.641 ± 0.044
82. LSPDSLGVLVEY  0.6272 ± 0.0058
83. LRFRTVTRSGLR  0.626 ± 0.048
84. LTAGGGEACGPP  0.625 ± 0.015
85. LSFFYLLSSYFL  0.62 ± 0.019
86. LRGLAVWCGYFS  0.619 ± 0.02
87. LSQPRDGMRWCA  0.6191 ± 0.0035
88. LSLLFLSLSLLR  0.61 ± 0.042
89. LSCLFYSYSVSS  0.607 ± 0.068
90. LSVGPIWFSCQA  0.605 ± 0.023
91. LVHPPPPLLPPA  0.6 ± 0.018
92. LSARVSYRITLR  0.599 ± 0.019
93. LSSCVRVSFLFF  0.588 ± 0.028
94. LSFFLFLLSPFY  0.582 ± 0.028
95. LRVRTLGLPLVY  0.569 ± 0.026
96. LSCFVFRLSWFL  0.556 ± 0.11
97. LRCLTIILYSMV  0.549 ± 0.033
98. LRKVIGVSFCLA  0.542 ± 0.049
99. LRVYCVIPLSGM  0.526 ± 0.049
100. LSFAVFIDFFTA  0.5223 ± 0.003
101. LSYCLLALFFPL  0.501 ± 0.009

From the supplement of paper PMC10724198
